Measured values taken from patent US20210252159A1, “CONJUGATES OF CARTILAGE-HOMING PEPTIDES” (priority 2018, published 2021).
Where two headings read alike, the source gives them in different places. Positions of bridges follow the written chain, without caps; N, C: chain ends. Residues, ends and D or L forms follow the SMILES beside them. *: point of attachment. X1 = CC(CCC(C)C(=O)*)C(=O)OCC(=O)[C@@]1(O)[C@H](C)C[C@H]2[C@@H]3CCC4=CC(=O)C=C[C@]4(C)[C@@]3(F)[C@@H](O)C[C@@]21C

Test: Hydrolysis assay of peptide-drug conjugates in rat plasma (free drug by LC/MS)
Assay type: in vitro ADME
Details: 37° C.

SMILES: CC[C@H](C)[C@@H]1NC(=O)[C@@H]2CSSC[C@H](NC(=O)[C@H](CCCNC(=N)N)NC(=O)[C@@H](NC(=O)[C@H](CC(N)=O)NC(=O)[C@@H](NC(=O)[C@@H]3CCCN3C(=O)[C@@H](NC(=O)CNC(=O)[C@H](CO)NC(=O)CNC(=O)C(C)CCC(C)C(=O)OCC(=O)[C@@]3(O)[C@H](C)C[C@H]4[C@@H]5CCC6=CC(=O)C=C[C@]6(C)[C@@]5(F)[C@@H](O)C[C@@]43C)C(C)C)[C@@H](C)CC)C(C)C)C(=O)N[C@@H](CCCNC(=N)N)C(=O)NCC(=O)N[C@@H](CO)C(=O)N[C@@H](CCCNC(=N)N)C(=O)N[C@@H](CC(=O)O)C(=O)N[C@H]3CSSC[C@H](NC(=O)[C@H](CCCNC(=N)N)NC(=O)[C@H](CO)NC(=O)[C@H](CC(N)=O)NC1=O)C(=O)N[C@@H](Cc1c[nH]cn1)C(=O)N[C@H](C(=O)N[C@H](C(=O)N1CCC[C@H]1C(=O)O)[C@@H](C)O)CSSC[C@H](NC(=O)[C@@H]1CCCN1C(=O)[C@H](CC(=O)O)NC(=O)[C@H](CC(C)C)NC3=O)C(=O)N[C@@H](CCCNC(=N)N)C(=O)N[C@@H](CCCNC(=N)N)C(=O)N[C@@H](C)C(=O)NCC(=O)N[C@@H](CCSC)C(=O)N[C@@H](CCCNC(=N)N)C(=O)N[C@@H](Cc1ccccc1)C(=O)NCC(=O)N[C@@H](CCCNC(=N)N)C(=O)N2 (some centres unmarked) [Compound 27, peptide(SEQ ID NO: 105)-[dimethyladipic acid]-Dex] (X1-GSGVPINVRCRGSRDCLDPCRRAGMRFGRCINSRCHCTP-OH; disulfide 10-30, 16-35, 20-37 (inferred); C-terminus assumed)
- half-life at 0.25 mg/mL (Rat Plasma, release of free Dex, time points to 32 hr, read-out: Half-life (hours) as measured in the hydrolysis experiments (converted)): 9.9 h
- half-life at 0.25 mg/mL (in rat plasma, free Dex, read-out: Hydrolysis half-life (converted)): 9.9 h
